{
  "source": "paper PMC10641069",
  "about": "“Intra- and inter-molecular regulation by intrinsically-disordered regions governs PUF protein RNA binding” (Nature Communications, 2023)",
  "binders": {"B1": {"name": "gld-1 FBEa RNA (EMSA) (ssRNA)", "RNA": "AUCAUGUGCCAUAC"}},
  "assay_in_all_cases": "EMSA; no LST-1; EMSA: FBF-2 in 20 mM HEPES pH 7.4, 150 mM NaCl, 0.5 mM TCEP mixed 1:1 with 5 nM final RNA in 10 mM HEPES pH 7.4, 0.01% Tween 20, 0.1 mg/ml BSA, 0.1 mg/ml yeast",
  "key": {"FBF-2 RBD+CT": {"molecular_target": "T1, FBF-2 RBD+CT (Caenorhabditis elegans, UniProt Q09312 164-632)", "T1 sequence": "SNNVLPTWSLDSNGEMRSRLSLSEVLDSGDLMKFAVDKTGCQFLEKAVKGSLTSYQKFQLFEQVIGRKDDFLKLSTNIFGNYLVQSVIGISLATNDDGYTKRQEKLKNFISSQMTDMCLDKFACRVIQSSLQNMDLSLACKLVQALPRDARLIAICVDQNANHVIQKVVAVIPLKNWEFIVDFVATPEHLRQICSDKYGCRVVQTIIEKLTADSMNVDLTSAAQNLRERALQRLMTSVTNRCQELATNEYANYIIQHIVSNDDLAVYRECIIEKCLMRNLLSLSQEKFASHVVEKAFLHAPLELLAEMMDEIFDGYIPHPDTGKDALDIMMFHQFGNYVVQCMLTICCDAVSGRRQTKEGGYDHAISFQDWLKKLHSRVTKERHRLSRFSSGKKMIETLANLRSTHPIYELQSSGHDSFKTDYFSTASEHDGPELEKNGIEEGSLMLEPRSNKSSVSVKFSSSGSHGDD", "details": "protein: recombinant; tags: none (His6-SUMO removed with Ulp1); label: 3'-Cy5"}, "FBF-2 RBD": {"molecular_target": "T2, FBF-2 RBD (Caenorhabditis elegans, UniProt Q09312 164-575)", "T2 sequence": "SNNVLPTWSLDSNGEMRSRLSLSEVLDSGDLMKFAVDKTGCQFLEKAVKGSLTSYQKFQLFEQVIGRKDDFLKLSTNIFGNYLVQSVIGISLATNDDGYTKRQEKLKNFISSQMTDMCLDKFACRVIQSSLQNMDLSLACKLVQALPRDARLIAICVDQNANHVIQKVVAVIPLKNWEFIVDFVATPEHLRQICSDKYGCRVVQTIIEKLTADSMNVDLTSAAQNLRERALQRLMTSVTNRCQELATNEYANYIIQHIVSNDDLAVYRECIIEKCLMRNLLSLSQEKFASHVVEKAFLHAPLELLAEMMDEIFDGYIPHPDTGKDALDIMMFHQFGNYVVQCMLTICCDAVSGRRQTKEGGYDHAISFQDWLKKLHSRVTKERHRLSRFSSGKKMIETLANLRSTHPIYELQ", "details": "protein: recombinant; tags: none (His6-SUMO removed with TEV protease); label: 3'-Cy5"}, "FBF-2 RBD+CT L610A": {"molecular_target": "T3, FBF-2 RBD+CT L610A (Caenorhabditis elegans, UniProt Q09312 164-632, L610A)", "T3 sequence": "T1 sequence with L447A", "details": "protein: recombinant; tags: none (His6-SUMO removed with Ulp1); label: 3'-Cy5"}, "FBF-2 RBD+CT Y479A": {"molecular_target": "T4, FBF-2 RBD+CT Y479A (Caenorhabditis elegans, UniProt Q09312 164-632, Y479A)", "T4 sequence": "T1 sequence with Y316A", "details": "protein: recombinant; tags: none (His6-SUMO removed with Ulp1); label: 3'-Cy5"}},
  "note": "Numbering of substitutions follows the chain as printed.",
  "data": [
    {"binder": "B1", "values": [
      {"measurement": "Kd", "setting": "FBF-2 RBD+CT", "result": "0.334 ± 0.061", "unit": "µM"},
      {"measurement": "Kd", "setting": "FBF-2 RBD", "result": "0.07 ± 0.023", "unit": "µM"},
      {"measurement": "Kd", "setting": "FBF-2 RBD+CT L610A", "result": "0.051 ± 0.026", "unit": "µM"},
      {"measurement": "Kd", "setting": "FBF-2 RBD+CT Y479A", "result": "0.062 ± 0.014", "unit": "µM"}
    ]}
  ]
}
